Measured values reported in PMC4027183.
Like-named read-outs stand apart in the source and are kept apart here.

Columns and labels:
Assay in all cases: ITC
TIA-1 RRM2,3 [1] = biological target: T1, TIA-1 RRM2,3 (Homo sapiens, UniProt P31483-2 93-274)
T1 sequence: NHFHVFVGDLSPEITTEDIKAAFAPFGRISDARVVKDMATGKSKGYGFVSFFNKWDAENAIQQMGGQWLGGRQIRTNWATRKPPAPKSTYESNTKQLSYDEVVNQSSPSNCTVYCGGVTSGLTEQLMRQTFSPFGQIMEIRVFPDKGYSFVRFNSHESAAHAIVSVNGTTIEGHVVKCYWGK

TIA-1 RRM1,2,3 = biological target: T2, TIA-1 RRM1,2,3 (Homo sapiens, UniProt P31483-2 1-274)
T2 sequence: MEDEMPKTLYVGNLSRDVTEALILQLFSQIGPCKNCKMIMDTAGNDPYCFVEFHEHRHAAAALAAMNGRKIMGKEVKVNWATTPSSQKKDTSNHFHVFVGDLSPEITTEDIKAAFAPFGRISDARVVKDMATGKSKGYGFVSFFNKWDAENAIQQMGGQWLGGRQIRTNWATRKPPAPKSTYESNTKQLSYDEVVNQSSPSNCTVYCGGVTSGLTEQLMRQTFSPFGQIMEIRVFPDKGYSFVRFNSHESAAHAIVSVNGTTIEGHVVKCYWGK

TIA-1 RRM2,3 [2] = biological target: T1, TIA-1 RRM2,3; remark: listed apart in the source
TIA-1 RRM2,3 [3] = biological target: T1, TIA-1 RRM2,3; remark: listed apart in the source

B1: fas_10 (ssRNA)
RNA: UUCUCCUUUC
Binder B1 has a Kd (TIA-1 RRM2,3 [1]) of 35.6 ± 8.1 nM.

B2: U15 (ssRNA)
RNA: UUUUUUUUUUUUUUU
With B2 the Kd (TIA-1 RRM1,2,3) was 16.9 ± 2.7 nM.

B3: U9 (ssRNA)
RNA: UUUUUUUUU
Binder B3 has a Kd (TIA-1 RRM2,3 [2]) of 7 ± 0.2 nM and a Kd (TIA-1 RRM2,3 [3]) of 5.6 ± 1.9 nM.
